Test results: US11655301B2, “Carrier-binding agent compositions and methods of making and using the same” (Mayo Foundation for Medical Education and Research, priority 2016, dated 2023)

Legend:
ABX [1] = target: T1, ABX (Homo sapiens, UniProt P02768); assay: Binding of cisplatin to ABX (free cisplatin in supernatant by HPLC); format: physicochemical; conditions: ABX 5 mg/ml, cisplatin 0.5 mg/ml, room temperature, 30 minutes
T1 construct: purchased Celgene Corporation, Summit, N.J

ABX [2] = target: T1, ABX; assay: Bio-Layer Interferometry (BLItz) binding of antibody to ABX; conditions: for binding affinity to ABX (in words): BLItz; for dependence of binding affinity to ABX on pH / temperature: pH 3, 5, 7, 9, BEV also RT, 37° C., 58° C.
Protocol: The association and dissociation constants were calculated using the BLItz software.

[3] = system: A375 human melanoma cells; assay: A375 xenograft, BEV pretreatment follow up study; format: in vivo, athymic nude mice; conditions: day 7 and day 10 post treatment; BEV 12 mg/kg, ABX 30 mg/kg
Source text: Data is represented at day 7-post and day 10-post treatment as tumor volume in mm^3. FIGS. 11A-E track tumor size over 10 days. […] See also FIG. 11 F and FIG. 11 G.

[4] = system: A375 human melanoma cells; assay: A375 human melanoma xenograft in athymic nude mice; format: in vivo; conditions: BEV 12 mg/kg, ABX 30 mg/kg, tumors about 700 mm^3 at treatment
Protocol: In vivo experiments were performed at least 2 times. The number of mice required for those experiments was determined by power analysis. Mouse tumors were measured 2-3 times/week and mice were sacrificed when the tumor was 10% by weight. […] The end point of the mouse studies was median survival. Kaplan-Meier curves were generated and Mantle-Cox test was performed to determine significance of median survival between treatment groups. The in vitro results presented are representative of at least 5 repeated experiments. Statistical analyses of in vitro and in vivo percent change from baseline experiments were done using the Student's t-test.
(§1) To test tumor efficacy, 1×10^6 A375 human melanoma cells were implanted into the right flank of athymic nude mice (Harlan Sprague Dawley, Indianapolis, Ind.). […] Tumor size was monitored 3 times/week and tumor volume was calculated with the following equation: (length×width^2)/2. Mice were sacrificed when the tumor size equaled 10% of the mouse body weight or about 2500 mm^3. The day 7 percent change from baseline was calculated as follows: [(tumor size on treatment day-tumor size on day 7)/tumor size on treatment day]×100.
The ABC complex was tested in the A375 melanoma xenotransplant model relative to each drug alone and AB160.
The effect of AB225 was assayed in animals as set forth above.

CD20 = target: T2, CD20 (Homo sapiens, UniProt P11836); assay: Blocking of fluorescent anti-human CD20 labeling of Daudi cells (flow cytometry); format: cell-based; conditions: Daudi cells pretreated before CD20 labeling
T2 construct: endogenous in cells; host or cells: Daudi human B-cell lymphoma cells
T2 sequence (P11836 1-297): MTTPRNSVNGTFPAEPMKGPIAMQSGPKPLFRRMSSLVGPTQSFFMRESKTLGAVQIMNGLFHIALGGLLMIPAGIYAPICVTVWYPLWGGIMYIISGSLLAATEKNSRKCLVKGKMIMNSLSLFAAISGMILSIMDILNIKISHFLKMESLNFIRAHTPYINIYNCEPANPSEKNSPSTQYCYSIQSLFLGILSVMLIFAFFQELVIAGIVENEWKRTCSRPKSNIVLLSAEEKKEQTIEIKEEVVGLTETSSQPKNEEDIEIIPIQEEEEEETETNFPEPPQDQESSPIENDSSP
Source text: CD20 positive Daudi lymphoma cells were labeled with fluorescent tagged anti-human CD20 or isotype matched control in panel F and A, respectively, and analyzed by flow cytometry.

[5] = system: Daudi human lymphoma cells; assay: Daudi lymphoma xenotransplant in athymic nude mice; format: in vivo; conditions: ABX 30 mg/kg, rituximab 12 mg/kg
Protocol: Tumor response was determined at day 7 post-treatment by the percent change in tumor size from the first day of treatment.
as §1
On day 7 post treatment, tumors were measured and the percent change in tumor size from baseline was calculated.

| Compound | cisplatin remaining in the supernatant (ABX [1]) [%] | binding affinity to ABX (in words) (ABX [2]) | dependence of binding affinity to ABX on pH / temperature (ABX [2]) | average tumor volume [3] | median survival [4] [days] | blocking of CD20 binding of fluorescent anti-CD20 (CD20) | median survival [5] [days] |
| --- | --- | --- | --- | --- | --- | --- | --- |
| N.N.[Cl][Pt][Cl] [cisplatin] | 40 |  |  |  |  |  |  |
| bevacizumab |  | picomolar range | both pH- and temperature-dependent | not therapeutic | 14 |  |  |
| rituximab |  | picomolar range | decreased with higher pH |  |  | specifically blocked | 12 |
